Assay results from US20040058857A1, “Method of treating cancer” (priority 2003, published 2004).
Numbered stars: 1 amine (or outer) side, 2 acyl side, 3 side chain; on linkers, the order of the positions; unused ones are H or OH. Square brackets hold non-standard residues; d marks the D form. Peptide text beside a SMILES is read from it. * marks the point of attachment. X1 = COc1cccc2c1C(=O)c1c(O)c3c(c(O)c1C2=O)C[C@@](O)(C(=O)CO)C[C@@H]3OC1CC(N*)C(O)C(C)O1; Glutaryl = O=C(CCCC(=O)[*:2])[*:1]; Hyp = O=C(O)[C@@H]1C[C@@H](O)CN1; Chg = N[C@H](C(=O)O)C1CCCCC1

Key:
[1] = Clinical trial of Compound B: tolerability and dose limiting toxicity
Experimental: (§1) Compound B (as described in Example 2) is a peptide conjugate of doxorubicin (Dox) that is cleaved by PSA at prostate tumor cells to leucine-dox (Leu-dox) and Dox. Thirty-three patients with advanced hormone refractory prostate cancer were treated with Compound B. Nineteen patients were initially treated at escalating dose levels of 20 (n=1), 40 (n=3), 80 (n=4), 160 (n=2), 225 (n=6), and 315 mg/m^2 (n=2) in the phase I portion of the trial. An additional 14 patients were treated with 225 mg/m^2 with prednisone.

[2] = clinical; details: male, human, in vivo, 225 mg/m2
Experimental: as §1

[3] = human, in vivo
Experimental: as §1

[4] = human, in vivo; remark: listed apart in the source
Experimental: as §1

| Compound | patients with dose limiting neutropenia ([1]; 315 mg/m^2 dose level) | tolerability ([1]; 33 patients with advanced hormone refractory prostate cancer) | recommended phase II dose ([1]; phase I dose escalation 20-315 mg/m^2) | AUC [2] | patients experiencing grade 3 fatigue [3] | metabolism in PK studies [4] | mean AUC ([4]; 225 mg/m2) |
| --- | --- | --- | --- | --- | --- | --- | --- |
| COc1cccc2c1C(=O)c1c(O)c3c(c(O)c1C2=O)C[C@@](O)(C(=O)CO)C[C@@H]3OC1CC(NC(=O)[C@H](CC(C)C)NC(=O)[C@H](CO)NC(=O)[C@H](CCC(N)=O)NC(=O)[C@@H](NC(=O)[C@H](CO)NC(=O)[C@H](C)NC(=O)[C@@H]2C[C@@H](O)CN2C(=O)CCCC(=O)O)C2CCCCC2)C(O)C(C)O1 (stereo partly drawn) [Compound B, [N-Glutaryl-(4-trans-L-Hyp)]-Ala-Ser-Chg-Gln-Ser-Leu-Dox] (Glutaryl-[Hyp]AS[Chg]QSL-X1; N-terminus and C-terminus assumed) | 2 patients | generally well tolerated | 225 mg/m^2 | 6 µM·h | two | metabolized to Leu-dox and Dox |  |
| COc1cccc2c1C(=O)c1c(O)c3c(c(O)c1C2=O)C[C@@](O)(C(=O)CO)C[C@@H]3O[C@H]1C[C@H](NC(=O)[C@@H](N)CC(C)C)[C@H](O)[C@H](C)O1 [Leu-Dox, leucine-dox] |  |  |  |  |  |  | 4 µM·h |
